Measurements from patent US20230095004.

Assays:
[1] = molecular target: T1, Angiopoietin-2 (Ang2) (Homo sapiens) (UniProt O15123); test: flow; settings: 2'-F
T1 sequence: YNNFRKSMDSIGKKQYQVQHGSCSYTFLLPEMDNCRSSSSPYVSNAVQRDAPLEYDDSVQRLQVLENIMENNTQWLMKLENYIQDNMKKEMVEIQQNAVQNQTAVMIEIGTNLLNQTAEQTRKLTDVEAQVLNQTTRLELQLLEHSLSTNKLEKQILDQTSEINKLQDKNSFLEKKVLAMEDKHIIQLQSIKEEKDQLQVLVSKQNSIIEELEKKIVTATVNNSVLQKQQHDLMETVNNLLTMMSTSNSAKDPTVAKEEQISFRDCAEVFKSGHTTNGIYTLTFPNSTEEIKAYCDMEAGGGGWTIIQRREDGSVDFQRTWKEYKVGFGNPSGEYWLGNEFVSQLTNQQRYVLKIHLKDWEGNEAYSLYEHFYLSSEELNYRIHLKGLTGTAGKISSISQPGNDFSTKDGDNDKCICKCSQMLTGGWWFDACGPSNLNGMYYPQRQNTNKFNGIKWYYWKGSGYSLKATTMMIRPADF

[2] = tested on: T2, VEGF-165 (VEGF-A) (Homo sapiens); test: flow; settings: 2'-F
T2 sequence: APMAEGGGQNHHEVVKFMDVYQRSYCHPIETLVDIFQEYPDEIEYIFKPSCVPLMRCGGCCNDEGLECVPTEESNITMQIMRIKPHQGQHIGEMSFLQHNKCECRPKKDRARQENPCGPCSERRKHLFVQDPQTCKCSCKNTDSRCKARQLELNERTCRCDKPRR

[3] = OOOO linker replacing UUUUA after UGCAUGCA
[4] = OO linker replacing UUUUA after UGCAUGCA
[5] = hexaethylene glycol (H) linker replacing UUUUA after UGCAUGCA
[6] = internal hexaethylene glycol (H) linker in Ang2 part

Question: Which Kd [1, 3] does the source give for “UGCAUGCACCAGUGAGUCGGAUCUCCGCAUAGAUAAGCCAACAAACGUACAUUCUCUGUUAGUAUUUUCUGCG [AMSB107.27]” here?
Answer: 0.079 nM

Question: What about the Kd [2, 3] of the same sequence?
Answer: 0.059 nM

Question: “UGCAUGCACCAGUGAGUCGGAUCUCCGCAUAGAUAAGCCAACAAACGUACAUUCUCUGUUAGUAUUUUCUGCG [AMSB107.26]” was tested. Which Kd [1, 4] did it give?
Answer: 0.076 nM

Question: What about the Kd [2, 4] of the same sequence?
Answer: 0.056 nM

Question: Which results are given for “UGCAUGCAUUUUACCAGUGAGUCGGAUCUCCGCAUAGAUAAGCCAACAAACGUACAUUCUCUGUUAGUAUUUUCUGCG [AMSB107.23]”?
Answer: Kd ([1]; 5' hexaethylene glycol (H)): 0.084 nM; Kd ([2]; 5' hexaethylene glycol (H)): 0.049 nM

Question: Which Kd [1, 5] does the source give for “UGCAUGCACCAGUGAGUCGGAUCUCCGCAUAGAUAAGCCAACAAACGUACAUUCUCUGUUAGUAUUUUCUGCG [AMSB107.22]” here?
Answer: 0.098 nM

Question: What about the Kd [2, 5] of the same sequence?
Answer: 0.055 nM

Question: How did the Kd [1, 6] turn out when “UGCAUGCAUUUUACCAGUGAGUCGGAUCUCCGCAUAGAUAAGCCAACAAAUUCUCUGUUAGUAUUUUCUGCG [AMSB107.24]” was run?
Answer: 1.78 nM

Question: What about the Kd [2, 6] of the same sequence?
Answer: 0.209 nM

Question: Which results are given for “UGCAUGCAUUUUACCAGUGAGUCGGAUCUCCGCAUAGAUAAGCCAACAAACGUUCUCUGUUAGUAUUUUCUGCG [AMSB107.25]”?
Answer: Kd [1, 6]: 1.41 nM; Kd [2, 6]: 0.224 nM
